{
  "source": "paper PMC7448930",
  "molecular_target": "HCoV-19 fusion core (HR1 and HR2 linked with a peptide linker) (HCoV-19)",
  "assay": "crystal structure; HR1 and HR2 linked on one chain by a peptide linker; 1.5 Å; one HR1/HR2 complex in the asymmetric unit, trimer by symmetry operations",
  "data": [
    {"substance": "HCoV-19 fusion core (HR1 and HR2 linked with a peptide linker) (domain or fragment)", "values": [
      {"measurement": "stoichiometry N", "result": 3}
    ]}
  ]
}
